Results from US20230212288A1 (published 2023).

Target: human CD3 receptor complex (human, UniProt P07766 23-207; P09693 23-182; P04234 22-171)
Assay: cell-based or functional assay

Chain of human CD3 receptor complex (P07766 23-207, chain 1 of 3): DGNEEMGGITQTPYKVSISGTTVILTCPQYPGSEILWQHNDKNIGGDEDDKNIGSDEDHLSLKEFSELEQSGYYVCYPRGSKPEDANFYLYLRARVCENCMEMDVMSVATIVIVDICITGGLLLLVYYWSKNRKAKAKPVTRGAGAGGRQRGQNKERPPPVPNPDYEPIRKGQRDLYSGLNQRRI
Chain of human CD3 receptor complex (P09693 23-182, chain 2 of 3): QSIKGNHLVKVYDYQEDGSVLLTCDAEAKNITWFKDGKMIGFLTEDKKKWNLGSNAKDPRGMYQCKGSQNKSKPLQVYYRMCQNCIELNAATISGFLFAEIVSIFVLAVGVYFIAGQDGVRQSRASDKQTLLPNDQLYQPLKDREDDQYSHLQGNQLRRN
Chain of human CD3 receptor complex (P04234 22-171, chain 3 of 3): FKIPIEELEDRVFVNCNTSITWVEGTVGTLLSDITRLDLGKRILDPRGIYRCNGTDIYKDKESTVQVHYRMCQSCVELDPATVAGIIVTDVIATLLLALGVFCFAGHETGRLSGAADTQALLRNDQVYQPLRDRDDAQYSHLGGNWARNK

Activity (EC50 for activation of Jurkat line cells, pM) [pM] | Binder
1.5 | 418_01_C05 (bispecific antibody) DIQLTQTPASLAVSLGQRATISCKASQSVDYDGDSYLNWYQQIPGQPPKLLIYDASNLVSGIPPRFSGSGSGTDFTLNIHPVEKVDAATYHCQQSTEDPWTFGGGTKLEIKGGSGGAMAEVQLVESGGGVVQPGRSLRLSCAASGFTFSSYGMHWVRQAPGKGLEWVSYINSRSSTIYYADSVKGRFTISRDNAKNSLYLQMNSLRDEDTAVYYCAKDKPLSGYAFDIWGQGTTVTVSSGGGGSGGGGSGGGASNFMLTQPHSVSESPGKTVTISCTRSSGSIASNFVQWYQQRPGRAPTIVIFDDDQRPSGVPDRFSGSIDRSSDSASLSISGLKTEDEADYYCQSYATRTQGVVFGGGTKVTVLGQPAAAGGGGSQVQLQQSGAELVRPGSSVKISCKASGYAFSSYWMNWVKQRPGQGLEWIGQIWPGDGDTNYNGKFKGKATLTADESSSTAYMQLSSLASEDSAVYFCARRETTTVGRYYYAMDYWGQGTSVTVSSASAAVECPPCPAPPVAGPSVFLFPPKPKDTLMISRTPEVTCVVVDVSHEDPEVQFNWYVDGVEVHNAKTKPREEQFNSTFRVVSVLTVVHQDWLNGKEYKCKVSNKGLPAPIEKTISKTKGQPREPQVYTLPPSREEMTKNQVSLTCLVKGFYPSDIAVEWESNGQPENNYKTTPPMLDSDGSFFLYSKLTVDKSRWQQGNVFSCSVMHEALHNHYTQKSLSLSPGK
13.8 | 309_01_G12 (bispecific antibody) DIQLTQTPASLAVSLGQRATISCKASQSVDYDGDSYLNWYQQIPGQPPKLLIYDASNLVSGIPPRFSGSGSGTDFTLNIHPVEKVDAATYHCQQSTEDPWTFGGGTKLEIKGGSGGAMAEVQLVQSGAEVKKPGASVKVSCKASGYTFTGYYMHWVRQAPGQGLEWMGRINPNSGGTNYAQKFQGRVTMTRDTSISTAYMELSRLRSDDAAVYYCARPSRYSNYVDWGQGTTVTVSSGGGGSGGGGSGGGASNFMLTQPHSVSESPGKTVTISCTRSSGSIASNYVQWYQQRPGSAPTTVIYDDDQRPSGVPDRFSGSIDRSSNSASLTISGLKTEDEADYYCQSYDNTNPWVFGGGTKLTVLGQPAAAGGGGSQVQLQQSGAELVRPGSSVKISCKASGYAFSSYWMNWVKQRPGQGLEWIGQIWPGDGDTNYNGKFKGKATLTADESSSTAYMQLSSLASEDSAVYFCARRETTTVGRYYYAMDYWGQGTSVTVSSASAAVECPPCPAPPVAGPSVFLFPPKPKDTLMISRTPEVTCVVVDVSHEDPEVQFNWYVDGVEVHNAKTKPREEQFNSTFRVVSVLTVVHQDWLNGKEYKCKVSNKGLPAPIEKTISKTKGQPREPQVYTLPPSREEMTKNQVSLTCLVKGFYPSDIAVEWESNGQPENNYKTTPPMLDSDGSFFLYSKLTVDKSRWQQGNVFSCSVMHEALHNHYTQKSLSLSPGK
2.2 | 410_01_C09 (bispecific antibody) DIQLTQTPASLAVSLGQRATISCKASQSVDYDGDSYLNWYQQIPGQPPKLLIYDASNLVSGIPPRFSGSGSGTDFTLNIHPVEKVDAATYHCQQSTEDPWTFGGGTKLEIKGGSGGAMAEVQLVQSGAEVKKPGASVKVSCKASGYTFTSYYMYWVRQAPGQGLEWMGRINPNSGGTNYAQKFQGRVTMTRDTSISTAYMELSRLRSDDTAVYYCARPSRYSNYVDWGQGTLVTVSSGGGGSGGGGSGGGASNFMLTQPHSVSESPGKTVTISCTRSSGSIASNYVQWYQQRPGSSPTTVIYEDNQRPSGVPDRFSGSIDSSSNSASLTISGLKTEDEADYYCQSYDSRWIWVSGGGTKVTVLGQPAAAGGGGSQVQLQQSGAELVRPGSSVKISCKASGYAFSSYWMNWVKQRPGQGLEWIGQIWPGDGDTNYNGKFKGKATLTADESSSTAYMQLSSLASEDSAVYFCARRETTTVGRYYYAMDYWGQGTSVTVSSASAAVECPPCPAPPVAGPSVFLFPPKPKDTLMISRTPEVTCVVVDVSHEDPEVQFNWYVDGVEVHNAKTKPREEQFNSTFRVVSVLTVVHQDWLNGKEYKCKVSNKGLPAPIEKTISKTKGQPREPQVYTLPPSREEMTKNQVSLTCLVKGFYPSDIAVEWESNGQPENNYKTTPPMLDSDGSFFLYSKLTVDKSRWQQGNVFSCSVMHEALHNHYTQKSLSLSPGK
7.9 | 309_01_A02 (bispecific antibody) DIQLTQTPASLAVSLGQRATISCKASQSVDYDGDSYLNWYQQIPGQPPKLLIYDASNLVSGIPPRFSGSGSGTDFTLNIHPVEKVDAATYHCQQSTEDPWTFGGGTKLEIKGGSGGAMAEVQLVESGGGLVKPGGSLRLSCAASGFTFSSYSMNWVRQAPGKGLEWVSSISSSSSYIYYADSVKGRFTISRDNAKNSLYLQMNSLRAEDTAVYYCARSSRIQAGMDVWGQGTLVTVSSGGGGSGGGGSGGGASNFMLTQPHSVSESPGKTVTISCTRSSGTIASTYVQWYQQRPGSSPTTVIYEDNQRPSGVPDRFSGSIDSSSNSASLTISGLKTEDAADYFCQSYDSNNRVFGGGTKVTVLGQPAAAGGGGSQVQLQQSGAELVRPGSSVKISCKASGYAFSSYWMNWVKQRPGQGLEWIGQIWPGDGDTNYNGKFKGKATLTADESSSTAYMQLSSLASEDSAVYFCARRETTTVGRYYYAMDYWGQGTSVTVSSASAAVECPPCPAPPVAGPSVFLFPPKPKDTLMISRTPEVTCVVVDVSHEDPEVQFNWYVDGVEVHNAKTKPREEQFNSTFRVVSVLTVVHQDWLNGKEYKCKVSNKGLPAPIEKTISKTKGQPREPQVYTLPPSREEMTKNQVSLTCLVKGFYPSDIAVEWESNGQPENNYKTTPPMLDSDGSFFLYSKLTVDKSRWQQGNVFSCSVMHEALHNHYTQKSLSLSPGK
2 | 309_01_G04 (bispecific antibody) DIQLTQTPASLAVSLGQRATISCKASQSVDYDGDSYLNWYQQIPGQPPKLLIYDASNLVSGIPPRFSGSGSGTDFTLNIHPVEKVDAATYHCQQSTEDPWTFGGGTKLEIKGGSGGAMAEVQLVESGGGVVQPGRSLRLSCAASGFTVSSNYMSWVRQAPGKGLEWVSAISGSGGSTYYADSVKGRFTTSRDNSKNTLYLQMNSLRAEDTAIYYCAKEDYYGGYFDYWGQGTMVTVSSGGGGSGGGGSGGGASNFMLTQPHSVSESPGKTVTISCTRSSGSIASNYVQWYQQRPGSSPTTVIYEDNQRPSGVPDRFSGSIDSSSNSASLTISGLKTEDEADYYCQSYDSSNQAVFGGGTKVTVLGQPAAAGGGGSQVQLQQSGAELVRPGSSVKISCKASGYAFSSYWMNWVKQRPGQGLEWIGQIWPGDGDTNYNGKFKGKATLTADESSSTAYMQLSSLASEDSAVYFCARRETTTVGRYYYAMDYWGQGTSVTVSSASAAVECPPCPAPPVAGPSVFLFPPKPKDTLMISRTPEVTCVVVDVSHEDPEVQFNWYVDGVEVHNAKTKPREEQFNSTFRVVSVLTVVHQDWLNGKEYKCKVSNKGLPAPIEKTISKTKGQPREPQVYTLPPSREEMTKNQVSLTCLVKGFYPSDIAVEWESNGQPENNYKTTPPMLDSDGSFFLYSKLTVDKSRWQQGNVFSCSVMHEALHNHYTQKSLSLSPGK
1 | 418_03_E12 (bispecific antibody) DIQLTQTPASLAVSLGQRATISCKASQSVDYDGDSYLNWYQQIPGQPPKLLIYDASNLVSGIPPRFSGSGSGTDFTLNIHPVEKVDAATYHCQQSTEDPWTFGGGTKLEIKGGSGGAMAQVQLVESGGGVVQPGRSLRLSCAASGFTFSSYGMHWVRQAPGKGLEWVSSISSSSSYIYYADSVKGRFTISRDNAKNSLYLQMNSLRADDTAVYYCARRSFSSVFADYWGQGTLVTVSSGGGGSGGGGSGGGASNFMLTQPHSVSESPGKTVTISCTRSRGSIASNYVQWYQQRPGRAPTIVIFDDDQRPSGVPDRFSGSIDRSSDSASLRISGLKTEDEADYYCQSYATRSQSVVFGGGTKLTVLGQPAAAGGGGSQVQLQQSGAELVRPGSSVKISCKASGYAFSSYWMNWVKQRPGQGLEWIGQIWPGDGDTNYNGKFKGKATLTADESSSTAYMQLSSLASEDSAVYFCARRETTTVGRYYYAMDYWGQGTSVTVSSASAAVECPPCPAPPVAGPSVFLFPPKPKDTLMISRTPEVTCVVVDVSHEDPEVQFNWYVDGVEVHNAKTKPREEQFNSTFRVVSVLTVVHQDWLNGKEYKCKVSNKGLPAPIEKTISKTKGQPREPQVYTLPPSREEMTKNQVSLTCLVKGFYPSDIAVEWESNGQPENNYKTTPPMLDSDGSFFLYSKLTVDKSRWQQGNVFSCSVMHEALHNHYTQKSLSLSPGK
3 | 410_01_C03 (bispecific antibody) DIQLTQTPASLAVSLGQRATISCKASQSVDYDGDSYLNWYQQIPGQPPKLLIYDASNLVSGIPPRFSGSGSGTDFTLNIHPVEKVDAATYHCQQSTEDPWTFGGGTKLEIKGGSGGAMAQVQLQQWGAGLLKPSETLSLTCAVYGGSFSGYYWSWIRQPPGKGLEWIGEINHSGSTNYNPSLKSRVTISVDTSKNQFSLKLSSVTAADTAVYYCARATRNGAFDYWGQGTLVTVSSGGGGSGGGGSGGGASNFMLTQPHSVSESPGKTVTISCTRSSGRIASNYVQWYQQRPGSSPTTVIYEDNQRPSGVPDRFSGSIDSSSNSASLTISGLKTEDEADYYCQSYDSSNVVFGGGTQLTVLGQPAAAGGGGSQVQLQQSGAELVRPGSSVKISCKASGYAFSSYWMNWVKQRPGQGLEWIGQIWPGDGDTNYNGKFKGKATLTADESSSTAYMQLSSLASEDSAVYFCARRETTTVGRYYYAMDYWGQGTSVTVSSASAAVECPPCPAPPVAGPSVFLFPPKPKDTLMISRTPEVTCVVVDVSHEDPEVQFNWYVDGVEVHNAKTKPREEQFNSTFRVVSVLTVVHQDWLNGKEYKCKVSNKGLPAPIEKTISKTKGQPREPQVYTLPPSREEMTKNQVSLTCLVKGFYPSDIAVEWESNGQPENNYKTTPPMLDSDGSFFLYSKLTVDKSRWQQGNVFSCSVMHEALHNHYTQKSLSLSPGK
4.3 | 418_03_H01 (bispecific antibody) DIQLTQTPASLAVSLGQRATISCKASQSVDYDGDSYLNWYQQIPGQPPKLLIYDASNLVSGIPPRFSGSGSGTDFTLNIHPVEKVDAATYHCQQSTEDPWTFGGGTKLEIKGGSGGAMAQVQLQQWGAGLLKPSETLSLTCAVYGGSFSRYYWSWIRQSPGKGLEWIGEIKHRGRTNYNPSLKSRVTMSVDTSKNQFSLQLRSVTAADTAVYYCARVYSSGWFSYWGQGTLVTVSSGGGGSGGGGSGGGASNFMLTQPHSVSESPGKTVTISCTRSSGSIARNYVQWYQQRPGSAPTTVIYEDNQRPSGVPDRFSGSIDSSSNSASLTISGLKTEDEADYYCQSYDGSNWVFGGGTKVTVLGQPAAAGGGGSQVQLQQSGAELVRPGSSVKISCKASGYAFSSYWMNWVKQRPGQGLEWIGQIWPGDGDTNYNGKFKGKATLTADESSSTAYMQLSSLASEDSAVYFCARRETTTVGRYYYAMDYWGQGTSVTVSSASAAVECPPCPAPPVAGPSVFLFPPKPKDTLMISRTPEVTCVVVDVSHEDPEVQFNWYVDGVEVHNAKTKPREEQFNSTFRVVSVLTVVHQDWLNGKEYKCKVSNKGLPAPIEKTISKTKGQPREPQVYTLPPSREEMTKNQVSLTCLVKGFYPSDIAVEWESNGQPENNYKTTPPMLDSDGSFFLYSKLTVDKSRWQQGNVFSCSVMHEALHNHYTQKSLSLSPGK
